According to patent US20040023313A1 (Amgen, published 2004):
Substitutions are numbered along the chain they refer to.

T1: Murine OPGL [158-316] (murine, UniProt O35235 158-316)
T1 sequence: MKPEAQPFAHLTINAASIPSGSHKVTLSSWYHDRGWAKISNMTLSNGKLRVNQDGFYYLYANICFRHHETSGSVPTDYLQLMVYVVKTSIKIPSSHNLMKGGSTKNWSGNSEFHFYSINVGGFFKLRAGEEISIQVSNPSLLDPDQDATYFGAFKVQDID

T2: OPGL used in the RAW 264.7 osteoclast formation assay (Example 6) (human, UniProt O14788 143-317, limits assumed)
T2 sequence (looked up): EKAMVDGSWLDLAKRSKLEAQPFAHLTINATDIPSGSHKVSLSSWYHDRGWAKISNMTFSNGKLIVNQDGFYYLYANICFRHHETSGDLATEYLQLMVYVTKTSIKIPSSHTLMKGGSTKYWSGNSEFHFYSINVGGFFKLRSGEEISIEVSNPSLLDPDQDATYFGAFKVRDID

T3: E. coli mouse OPGL (mOPGL) 158 (mouse, UniProt O35235 158-316)
T3 construct: kept apart
T3 sequence (looked up): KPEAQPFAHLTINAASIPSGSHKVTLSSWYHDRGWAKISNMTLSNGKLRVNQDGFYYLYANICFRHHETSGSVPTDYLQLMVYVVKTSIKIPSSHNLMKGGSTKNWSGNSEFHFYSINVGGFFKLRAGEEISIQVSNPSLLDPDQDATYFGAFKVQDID

T4: CHO human OPGL (hOPGL) 140 (human, UniProt O14788 140-317)
T4 construct: also called CHO hOPGL 140
T4 sequence (looked up): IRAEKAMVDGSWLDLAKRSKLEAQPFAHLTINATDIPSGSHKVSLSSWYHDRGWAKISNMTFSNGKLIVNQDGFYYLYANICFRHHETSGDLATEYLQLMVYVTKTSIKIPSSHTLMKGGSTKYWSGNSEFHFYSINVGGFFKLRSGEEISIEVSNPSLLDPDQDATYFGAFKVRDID

B1: 9H7 anti-OPGL antibody (antibody, V domains shown)
VH: EVQLVQSGGGLVHPGGSLRLSCEGSGFTFSSNGMHWVRQTPGKGLEWVSGIGTAGGTYYADSVKGRFTISRDNVKKSLYLQMNSLRAEDMAIYYCVRKDWGWFDPWGQGALVTVSS
VL: EIVLTQSPATLSLSPGERATLSCRASQSISSYLAWYQQKPGQAPRLLIYDASNRATGIPARFSGSGSGTDFTLTISSLEPEDFAVYYCQQRSKWPPYTFGQGTKLEIKR
notes: Fully human IgG1 kappa from HuMab mice; also called 9H7 anti-OPGL MAb
B2: 16E1 anti-OPGL antibody (antibody, V domains shown)
VH: EVQLVQSGGGLVHPGGSLRLSCAGSGFTFSGHALHWVRQAPGKGLEWVSGIGTHGGTYYADSVKGRFTISRDNAKNSLFLQMNSLSAEDMAVYYCTRRNWGQFDYWGQGTLVTVSS
VL: B1 VL with I29V, K93N
notes: Fully human IgG1 kappa from HuMab mice
B3: 2D8 anti-OPGL antibody (antibody, V domains shown)
VH: B1 VH with E23A, N32Y, T40A, A54G, K76N, I92V, V96A, D99N, P105Y, A110T
VL: B1 VL
notes: as for B2
B4: 22B3 anti-OPGL antibody (antibody, human IgG1, kappa, V domains shown)
VH: B1 VH with D99N
VL: B1 VL with I29V, S30N, Y36F, V85I, K93N, Y97F
notes: as for B2
B5: 18B2 anti-OPGL antibody (antibody, V domains shown)
VH: EVQLVQSGGGLVHPGGSLRLSCVGSRFTFSAYPMHWVRQAPGKGLEWVSGIGSGGGTNYADSVKGRFTISRDTAKNSLYLQMNSLRAEDMAVYYCARGRNSFDYWGQGTLVTVSS
VL: DIQMTQSPSSLSASVGDRVTITCRASQGISTWLAWYQQKPEKAPKSLIYAASSLQSGVPSRFSGSGSGTDFTLTISSLQPEDFATYYCQQYNSYPPTFGQGTKVEIKR
notes: as for B2
B6: 2E11 anti-OPGL antibody (antibody, V domains shown)
VH: EVQLVQSGGDLVHPGGSLRLSCVGSGFTFSHYPLHWVRQAPGKGLEWISGIHTGGGTYYTDSVKGRFTISSDNAKNSLYLQMNTLRAEDMAVYYCARGRNSFDYWGQGTLVIVSS
VL: B5 VL with T31S, P80S, K103R, V104L
notes: Fully human IgG1 kappa from HuMab mice; also called 2 µl 1

Experiments:
Murine OPGL [158-316] = target: T1, Murine OPGL [158-316]; assay: ELISA: plate coated with murine OPGL[158-316] at 3 µg/mL, antibody titrated 1.95-2000 ng/ml, goat anti-human IgG (Fc) detection, ABTS, OD405
Description: (§1) After overnight incubation, the protein solutions were removed from the plate and 200 μL of 5% Chicken Serum (Gibco/BRL Cat# 16110-082) in PBST (PBS plus 0.05% Tween 20) was added to each well of the plate and plates were incubated at room temperature (RT) for 3 hours with agitation. After incubation and blocking, plates were washed 4 times with 1× K-P wash solution in dH₂O (Cat# 50-63-00, Kirkegaard & Perry Laboratories) and dried. […] Plates were incubated for 2.25 hours at room temperature with agitation, washed four times with 1× K-P wash solution and dried. Goat anti-human IgG (Fc) (Jackson ImmunoResearch, Cat# 109-036-098) was diluted 1:3000 in 5% Chicken Serum in PBST and 100 μL was added to each well. […] 100 μL of undiluted ABTS substrate (Kirkegaard & Perry; Cat# 50-66-00) was added to each well and the dish was incubated at room temperature until sufficient blue-green color developed. Color development was stopped by addition of 100 μL 1% SDS. Quantitation of color development was performed using a microtiter plate reader with detection at 405 nm.

[1] = target: T2, OPGL used in the RAW 264.7 osteoclast …; assay: cell-based or functional assay
[2] = target: T3, E. coli mouse OPGL (mOPGL) 158; assay: SPR (BIAcore 2000), antibody captured on Protein G, mOPGL 158 in solution
Description: (§2) All experiments were performed on a BlAcore 2000 according to the manufacturer's instructions, with the following modifications. Experiments were performed at room temperature using a running buffer containing 10 mM Hepes (pH 7.4), 0.15M NaCl, 3 mM EDTA, and 0.005% Tween 20. Protein G at 50 μg/mL in 10 mM acetate pH 4.5 was immobilized to a level of 1,600 response units (RU) onto a CM5 Research grade sensor chip (BlAcore, Inc.). Antibodies (8-20 μg/mL) were captured onto the Protein G chip at a level of 300-400 RUs. […] Langmuir 1:1 model was used to determine binding kinetics. Protein G immobilized to 1600 RUs was used as a blank surface. A mouse monoclonal antibody was used as a positive control to show binding to hOPGL 140 and to monitor surface stability.

[3] = target: T5, FLAG-murine OPGL [158-316]/DE (murine, UniProt O35235 158-316); assay: ELISA: plate coated with FLAG-murine OPGL[158-316]/DE at 3 µg/mL, antibody titrated 1.95-2000 ng/ml, goat anti-human IgG (Fc) detection, ABTS, OD405
T5 construct: The same paragraph also prints the changes as S231D, V232L, P233A and D235E (T234 unchanged), a numbering two higher than the 229-233 it gives first
Description: as §1

[4] = target: T4, CHO human OPGL (hOPGL) 140; assay: SPR (BIAcore 2000), antibody captured on Protein G, hOPGL 140 in solution 0.25-62 nM, Langmuir 1:1
Description: as §2

| Binder | binding result (Murine OPGL [158-316]) | IC50 (ng/mL), inhibition of OPGL-driven osteoclast formation of RAW 264.7 cells (TRAP activity, OD 405 nM) [1] [ng/mL] | binding result [2] | EC50 (read off the curve) [3] [µg/mL] | koff [4] [s⁻¹] | kon [4] [M⁻¹ s⁻¹] | off rate half life t½ [4] [h] | binding result [3] |
| --- | --- | --- | --- | --- | --- | --- | --- | --- |
| B1 | no binding (tested: 2000 ng/ml) | 129 | no binding (tested: 0.25-62 nM) |  |  |  |  |  |
| B2 | no binding (tested: 2000 ng/ml) | 352 | no binding (tested: 0.25-62 nM) | ~0.01 | 0.000137 | 2.16e+06 | 1.41 |  |
| B3 | no binding (tested: 2000 ng/ml) | 611 | no binding (tested: 0.25-62 nM) |  |  |  |  |  |
| B4 |  | 146 |  | ~0.009 | 6.39e-05 | 1.9e+06 | 3.01 |  |
| B5 | no binding (tested: 2000 ng/ml) | 80 | no binding (tested: 0.25-62 nM) |  | 0.000186 | 878000 | 1.03 |  |
| B6 | no binding (tested: 2000 ng/ml) | 77 | no binding (tested: 0.25-62 nM) |  | 0.000132 | 453000 | 1.46 | no binding (tested: 2000 ng/ml) |
